Sequences and labels used below:
B1: Hairpin Ribozyme (parent)
chain: GUCCUCUUUCACGUGCGCGUGAAAGAGAGAAGUGAACCAGAGAAACACACGUUGUGGUAUAUUACCUGGUA

Variants of B1 are the subject of the data set. Kind of data set: self-cleavage, relative activity (ratio to wild type); higher = more cleavage; co-transcriptional.
With GUCCUCUUUCACGUGCGCGUGAAAGAGAGAAGUGAAACAGAGAAACACACGUUGUGGUGUAUUACCUGGUA, the self-cleavage is 0.241.

On to GUCCUCUUUCACGUGCGCGUGAAAGAGAGAAGUGAAACAGAGAAACACACGUUGUGGUCUAUUACCUGGUA, for which the self-cleavage amounted to 0.137.

For GUCCUCUUUCACGUGCGCGUGAAAGAGAGAAGUGAAACAGAGAAACACACGUUGUGGUUUAUUACCUGGUA, the self-cleavage is 0.0631.

With GUCCUCUUUCACGUGCGCGUGAAAGAGAGAAGUGAUCCAGAGAAACACACGUUGUUGUAUAUUACCUGGUA, the self-cleavage worked out at 0.21.

In the case of GUCCUCUUUCACGUGCGCGUGAAAGAGAGAAGUGAGCCAGAGAAACACACGCUGUGGUAUAUUACCUGGUA, the self-cleavage was 1.24.

For the variant GUCCUCUUUCACGUGCGCGUGAAAGAGAGAAGUGAUCCAGAGAAACACACGUUCUGGUAUAUUACCUGGUA, the self-cleavage was 0.278.

For the variant GUCCUCUUUCACGUGCGCGUGAAAGAGAGAAGUGAUCCAGAGAAACACACGUUAUGGUAUAUUACCUGGUA, the self-cleavage is 0.212.

Regarding GUCCUCUUUCACGUGCGCGUGAAAGAGAGAAGUGAAACAGAGAAACAAACGUUGUGGUAUAUUACCUGGUA, the self-cleavage came out at 0.189.

Take GUCCUCUUUCACGUGCGCGUGAAAGAGAGAAGUGAAACAGAGCAACACACGUUGUGGUAUAUUACCUGGUA: the self-cleavage is 0.0917.

GUCCUCUUUCACGUGCGCGUGAAAGAGAGAAGUGAAACAGAGUAACACACGUUGUGGUAUAUUACCUGGUA: the self-cleavage amounted to 0.15.

For the variant GUCCUCUUUCACGUGCGCGUGAAAGAGAGAAGUGAGCCAUAGAAACACACGUUGUGGUAUAUUACCUGGUA, the self-cleavage was found to be 0.0848.

On to GUCCUCUUUCACGUGCGCGUGAAAGAGAGAAGUGAGCCAAAGAAACACACGUUGUGGUAUAUUACCUGGUA, for which the self-cleavage stood at 0.349.

Regarding GUCCUCUUUCACGUGCGCGUGAAAGAGAGAAGUGAGCCAGAGAAACACACGUUGUGGUAUAUUACCCGGUA, the self-cleavage was determined as 0.335.

Consider GUCCUCUUUCACGUGCGCGUGAAAGAGAGAAGUGAUCCAGAGAAACACUCGUUGUGGUAUAUUACCUGGUA, for which the self-cleavage is 0.124.

For the variant GUCCUCUUUCACGUGCGCGUGAAAGAGAGAAGUGAGCCAGAGAAACACACGUUGUGGUAUAUUACCUGGGA, the self-cleavage turned out to be 1.03.

GUCCUCUUUCACGUGCGCGUGAAAGAGAGAAGUGAUCCAGAGAAACACACGUUGUGCUAUAUUACCUGGUA: the self-cleavage came to 0.172.

With GUCCUCUUUCACGUGCGCGUGAAAGAGAGAAGUGAGCCAGAGAAACACACGUUGUUGUAUAUUACCUGGUA, the self-cleavage came to 0.183.

For GUCCUCUUUCACGUGCGCGUGAAAGAGAGAAGUGAUCCAGAGAAACACACGUUGUGGUAUAUUACCUGGAA, the self-cleavage was 0.775.

For the variant GUCCUCUUUCACGUGCGCGUGAAAGAGAGAAGUGAUCCAGAGAAACACACGUUGUGGUAUAUUACCUGGGA, the self-cleavage stood at 0.665.

Take GUCCUCUUUCACGUGCGCGUGAAAGAGAGAAGUGAUCCAGAGAAACACACGUUGUGGUAUAUUACCUGGCA: the self-cleavage was 0.473.

Take GUCCUCUUUCACGUGCGCGUGAAAGAGAGAAGUGAGCCAGAGAAACACACGUUGUGGUAUAUUACAUGGUA: the self-cleavage amounted to 0.0924.

For GUCCUCUUUCACGUGCGCGUGAAAGAGAGAAGUGAGUCAGAGAAACACACGUUGUGGUAUAUUACCUGGUA, the self-cleavage was determined as 0.0788.

As to GUCCUCUUUCACGUGCGCGUGAAAGAGAGAAGUGAAACAGAGAAACACACGUUGUGGUAUAUUGCCUGGUA, the self-cleavage was found to be 0.187.

In the case of GUCCUCUUUCACGUGCGCGUGAAAGAGAGAAGUGAGCCAGAGAAACACACGUUGUGGUAUAUUACCUGGUG, the self-cleavage turned out to be 0.982.

On to GUCCUCUUUCACGUGCGCGUGAAAGAGAGAAGUGAUCCAGAGAAACACACGUUGUGGCAUAUUACCUGGUA, for which the self-cleavage worked out at 0.719.

For GUCCUCUUUCACGUGCGCGUGAAAGAGAGAAGUGAUCCAGAGAAACACACGUUGUGGGAUAUUACCUGGUA, the self-cleavage is 0.417.

Consider GUCCUCUUUCACGUGCGCGUGAAAGAGAGAAGUGAAAGAGAGAAACACACGUUGUGGUAUAUUACCUGGUA, for which the self-cleavage is 0.31.

In the case of GUCCUCUUUCACGUGCGCGUGAAAGAGAGAAGUGAUGCAGAGAAACACACGUUGUGGUAUAUUACCUGGUA, the self-cleavage is 0.149.

On to GUCCUCUUUCACGUGCGCGUGAAAGAGAGAAGUGAGCCAGAGAAACACUCGUUGUGGUAUAUUACCUGGUA, for which the self-cleavage stood at 0.204.

GUCCUCUUUCACGUGCGCGUGAAAGAGAGAAGUGAUCCAGAGAAACACACGUGGUGGUAUAUUACCUGGUA: the self-cleavage turned out to be 0.224.

In the case of GUCCUCUUUCACGUGCGCGUGAAAGAGAGAAGUGAUCCAGAGAAACACACGUUGUGGUAUAUUACCGGGUA, the self-cleavage is 0.177.

Regarding GUCCUCUUUCACGUGCGCGUGAAAGAGAGAAGUGAUCCAGAGAAACACACGUUGUGGUAUAUUACCAGGUA, the self-cleavage came to 0.235.

As to GUCCUCUUUCACGUGCGCGUGAAAGAGAGAAGUGAUCCAGAGAAACAAACGUUGUGGUAUAUUACCUGGUA, the self-cleavage was determined as 0.0449.

Take GUCCUCUUUCACGUGCGCGUGAAAGAGAGAAGUGAAACAGAGAGACACACGUUGUGGUAUAUUACCUGGUA: the self-cleavage stood at 0.208.

Regarding GUCCUCUUUCACGUGCGCGUGAAAGAGAGAAGUGAAACAGAGAUACACACGUUGUGGUAUAUUACCUGGUA, the self-cleavage came to 0.109.

On to GUCCUCUUUCACGUGCGCGUGAAAGAGAGAAGUGAAACAGAGACACACACGUUGUGGUAUAUUACCUGGUA, for which the self-cleavage is 0.203.

As for GUCCUCUUUCACGUGCGCGUGAAAGAGAGAAGUGAGCGAGAGAAACACACGUUGUGGUAUAUUACCUGGUA, the self-cleavage was 0.127.

Turning to GUCCUCUUUCACGUGCGCGUGAAAGAGAGAAGUGAUCCAGAGAAACACACGUUGUGGUAGAUUACCUGGUA, the self-cleavage is 0.246.

GUCCUCUUUCACGUGCGCGUGAAAGAGAGAAGUGAUCCAGAGAAACACACGUUGUGGUACAUUACCUGGUA: the self-cleavage amounted to 0.804.

For the variant GUCCUCUUUCACGUGCGCGUGAAAGAGAGAAGUGAGCCAGAGAAACACACUUUGUGGUAUAUUACCUGGUA, the self-cleavage worked out at 0.97.

In the case of GUCCUCUUUCACGUGCGCGUGAAAGAGAGAAGUGAAACAGAGAAAAACACGUUGUGGUAUAUUACCUGGUA, the self-cleavage was 0.179.

GUCCUCUUUCACGUGCGCGUGAAAGAGAGAAGUGAAACAGAGAAAGACACGUUGUGGUAUAUUACCUGGUA: the self-cleavage came to 0.0923.

On to GUCCUCUUUCACGUGCGCGUGAAAGAGAGAAGUGAGCCAGAUAAACACACGUUGUGGUAUAUUACCUGGUA, for which the self-cleavage was determined as 0.227.

As to GUCCUCUUUCACGUGCGCGUGAAAGAGAGAAGUGAUCGAGAGAAACACACGUUGUGGUAUAUUACCUGGUA, the self-cleavage is 0.0875.

As to GUCCUCUUUCACGUGCGCGUGAAAGAGAGAAGUGAUCCAGAGAAACACACGUUGUGGUAUCUUACCUGGUA, the self-cleavage was 0.196.

Regarding GUCCUCUUUCACGUGCGCGUGAAAGAGAGAAGUGAGCCAGAGAAAUACACGUUGUGGUAUAUUACCUGGUA, the self-cleavage is 0.189.

In the case of GUCCUCUUUCACGUGCGCGUGAAAGAGAGAAGUGAAACGGAGAAACACACGUUGUGGUAUAUUACCUGGUA, the self-cleavage amounted to 0.181.

For GUCCUCUUUCACGUGCGCGUGAAAGAGAGAAGUGAUCCAGACAAACACACGUUGUGGUAUAUUACCUGGUA, the self-cleavage amounted to 0.234.

In the case of GUCCUCUUUCACGUGCGCGUGAAAGAGAGAAGUGAUCCAGAGAAACACACGUUGUGGUUUAUUACCUGGUA, the self-cleavage is 0.132.

Take GUCCUCUUUCACGUGCGCGUGAAAGAGAGAAGUGAGCCAGAGAAACACACGUUGUGGUAUAUUACCUGUUA: the self-cleavage was determined as 0.237.

On to GUCCUCUUUCACGUGCGCGUGAAAGAGAGAAGUGAGCCAGAGAAACACACGUUGUGGUAUAUUACCUGAUA, for which the self-cleavage came to 0.414.

Turning to GUCCUCUUUCACGUGCGCGUGAAAGAGAGAAGUGAUCCAGAGAAAUACACGUUGUGGUAUAUUACCUGGUA, the self-cleavage was found to be 0.31.

Turning to GUCCUCUUUCACGUGCGCGUGAAAGAGAGAAGUGAUCCAGAGAAACACACGUUGUGGUAUAUUUCCUGGUA, the self-cleavage is 0.165.

As for GUCCUCUUUCACGUGCGCGUGAAAGAGAGAAGUGAUCCAGAGAAACACACGUUGUGGUAUAUCACCUGGUA, the self-cleavage stood at 0.172.

Take GUCCUCUUUCACGUGCGCGUGAAAGAGAGAAGUGAUCCAGAGAAACACACGUUGUGGUAUAUAACCUGGUA: the self-cleavage was 0.207.

In the case of GUCCUCUUUCACGUGCGCGUGAAAGAGAGAAGUGAUCCAGAGAAACACACGUUGUGGUAUAUGACCUGGUA, the self-cleavage stood at 0.165.

Take GUCCUCUUUCACGUGCGCGUGAAAGAGAGAAGUGAGCCAGAGAAUCACACGUUGUGGUAUAUUACCUGGUA: the self-cleavage is 0.219.

As to GUCCUCUUUCACGUGCGCGUGAAAGAGAGAAGUGAGCCAGAGAAGCACACGUUGUGGUAUAUUACCUGGUA, the self-cleavage is 0.28.

With GUCCUCUUUCACGUGCGCGUGAAAGAGAGAAGUGAUCCAGAGAAACACACUUUGUGGUAUAUUACCUGGUA, the self-cleavage was found to be 0.648.

For the variant GUCCUCUUUCACGUGCGCGUGAAAGAGAGAAGUGAAACAGAGAAUCACACGUUGUGGUAUAUUACCUGGUA, the self-cleavage is 0.169.

Take GUCCUCUUUCACGUGCGCGUGAAAGAGAGAAGUGAGCCAGAGAAACACACGUUGCGGUAUAUUACCUGGUA: the self-cleavage was 0.324.

With GUCCUCUUUCACGUGCGCGUGAAAGAGAGAAGUGAGCCAGAGAAACACACGUUGGGGUAUAUUACCUGGUA, the self-cleavage amounted to 0.271.

Turning to GUCCUCUUUCACGUGCGCGUGAAAGAGAGAAGUGAUCCAGGGAAACACACGUUGUGGUAUAUUACCUGGUA, the self-cleavage amounted to 0.476.

Regarding GUCCUCUUUCACGUGCGCGUGAAAGAGAGAAGUGAUCCAGAGAAACACACGUUGGGGUAUAUUACCUGGUA, the self-cleavage was 0.163.

With GUCCUCUUUCACGUGCGCGUGAAAGAGAGAAGUGAUCCAGAGAAACACACGUUGCGGUAUAUUACCUGGUA, the self-cleavage amounted to 0.124.

Take GUCCUCUUUCACGUGCGCGUGAAAGAGAGAAGUGAUCCAGAGAAACACACGUUGUGGUAUACUACCUGGUA: the self-cleavage was found to be 0.185.

On to GUCCUCUUUCACGUGCGCGUGAAAGAGAGAAGUGAGCCAGAGAAACACACGUUGUGGUAUACUACCUGGUA, for which the self-cleavage was 0.328.

As for GUCCUCUUUCACGUGCGCGUGAAAGAGAGAAGUGAGCCAGAGAAACACACGUUGUGGUAUAUUACCUCGUA, the self-cleavage was found to be 0.211.

As to GUCCUCUUUCACGUGCGCGUGAAAGAGAGAAGUGAUCCUGAGAAACACACGUUGUGGUAUAUUACCUGGUA, the self-cleavage was 0.171.

In the case of GUCCUCUUUCACGUGCGCGUGAAAGAGAGAAGUGAGCCAGAGAAACACACGUUGUGGUAUAUUAACUGGUA, the self-cleavage stood at 0.73.

Regarding GUCCUCUUUCACGUGCGCGUGAAAGAGAGAAGUGAAACAGAGAAACCCACGUUGUGGUAUAUUACCUGGUA, the self-cleavage was 0.108.

For the variant GUCCUCUUUCACGUGCGCGUGAAAGAGAGAAGUGAAACAGAGAAACUCACGUUGUGGUAUAUUACCUGGUA, the self-cleavage came out at 0.19.

Consider GUCCUCUUUCACGUGCGCGUGAAAGAGAGAAGUGAUCCAGAGAAACACACGUUGUGGUAUAUUAGCUGGUA, for which the self-cleavage worked out at 0.106.

For GUCCUCUUUCACGUGCGCGUGAAAGAGAGAAGUGAGCCAGAGAAACACACGUUGUGGGAUAUUACCUGGUA, the self-cleavage worked out at 0.952.

Turning to GUCCUCUUUCACGUGCGCGUGAAAGAGAGAAGUGAUCCAGAGAAACACACGUUGUGGUAUAUUACCUCGUA, the self-cleavage amounted to 0.129.

GUCCUCUUUCACGUGCGCGUGAAAGAGAGAAGUGAUCCAGAGAAACACACGUUGUGGUAUAUUACCUAGUA: the self-cleavage turned out to be 0.106.

Source of the values: the RNAGym collection of RNA variant scans (doi:10.7554/elife.80360).
